Measurements from the supplement of paper PMC7877785.
± gives the uncertainty stated by the source.

Assay: self-splicing fitness, log relative to wild type (ln ratio); higher = more splicing; Tetrahymena group I intron in knt gene, E. coli kanamycin selection, DiMSum; sequences stand for … in CUCUCU…GGAGGGAAAAGUUAUCAGGCAUGCACCUGGUAGCUAGUCUUUAAACCAAUAGAUUGCAUCGGUUUAAAAGGCAAGACCGUCAAAUUGCGGGAAAGGGGUCAACAGCCGUUCAGUACCAAGUCUCAGGGGAAACUUUGAGAUGGCCUUGCAAAGGGUAUGGUAAUAAGCUGACGGACAUGGUCCUAACCACGCAGCCAAGUCCUAAGUCAACAGAUCUUCUGUUGAUAUGGAUGCAGUUCACAGACUAAAUGUCGGUCGGGGAAGAUGUAUUCUUCUCAUAAGAUAUAGUCGGACCUCUCCUUAAUGGGAGCUAGCGGAUGAAGUGAUGCAACACUGGAGCCGCUGGGAACUAAUUUGUAUGCGAAAGUAUAUUGAUUAGUUUUGGAGUACUCGUGGUCG
Outline: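 DiMSum derived fitness as the error-weighted combination of fold changes across replicates, kanamycin versus no kanamycin, normalised to wild type. E. coli BL21(DE3) held the library, which randomised all eight P1ex-region intron nucleotides within the knt kanamycin-resistance gene on pET-22b(+). Six replicate transformations grew overnight at 37°C or 30°C on LB agar with or without 25 μg/mL kanamycin, also containing 100 μg/mL carbenicillin, 50 μM IPTG and 0.2% rhamnose, and pooled colonies were amplicon-sequenced on an Illumina HiSeq 2500.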

Sequence	self-splicing fitness (ln) (30 °C)	self-splicing fitness (ln) (37 °C)
UAUGAGCAAUAUUACGCACC	-1.68 ± 0.49	-0.807 ± 0.36
UAUGAGCAAUAUUACGCCAU	-2.15 ± 0.2	-2.59 ± 0.3
UAUGAGCAAUAUUACGGAAG	-3.37 ± 0.37	-2.14 ± 0.36
UAUGAGCAAUAUUACGGGUA	-1.86 ± 0.14	-2.05 ± 0.14
UAUGAGCAAUAUUACGGGUC	-3.72 ± 0.23	-2.91 ± 0.25
UAUGAGCAAUAUUACGGGUG	-2.3 ± 0.15	-1.06 ± 0.16
UAUGAGCAAUAUUACGGUAU	-4.03 ± 0.42	-1.06 ± 0.24
UAUGAGCAAUAUUACGUCGU	-3.39 ± 0.3	-2.93 ± 0.32
UAUGAGCAAUAUUACGUGUA	-2.13 ± 0.16	-1.32 ± 0.12
UAUGAGCAAUAUUACGUUAA	-4.12 ± 0.31	-2.59 ± 0.28
UAUGAGCAAUAUUACGUUCU	-3.57 ± 0.29	-2.67 ± 0.34
UAUUAGCAAUAUUACGAAAC	–	-2.53 ± 0.3
UAUUAGCAAUAUUACGAAGG	-2.18 ± 0.22	-0.523 ± 0.17
UAUUAGCAAUAUUACGAAUC	-3.46 ± 0.23	-0.913 ± 0.2
UAUUAGCAAUAUUACGAAUU	-2.51 ± 0.2	-0.596 ± 0.21
UAUUAGCAAUAUUACGACUG	-0.225 ± 0.16	0.804 ± 0.21
UAUUAGCAAUAUUACGAUCC	-3.56 ± 0.38	-1.76 ± 0.25
UAUUAGCAAUAUUACGCAGC	-3.88 ± 0.24	-2.56 ± 0.31
UAUUAGCAAUAUUACGCAGU	-2.78 ± 0.28	-2.72 ± 0.26
UAUUAGCAAUAUUACGCCUC	–	-3.1 ± 0.48
UAUUAGCAAUAUUACGCCUU	-0.78 ± 0.27	-0.885 ± 0.36
UAUUAGCAAUAUUACGCGCC	-1.23 ± 0.4	–
UAUUAGCAAUAUUACGCGUG	-0.538 ± 0.055	-0.463 ± 0.065
UAUUAGCAAUAUUACGCUCC	-2.75 ± 0.35	–

Sequence	self-splicing fitness (ln) (30 °C)	self-splicing fitness (ln) (37 °C)
UAUUAGCAAUAUUACGCUUC	-3.43 ± 0.44	-2.84 ± 0.38
UAUUAGCAAUAUUACGGAAA	-1.81 ± 0.48	-1.98 ± 0.46
UAUUAGCAAUAUUACGGCAC	-1.88 ± 0.21	-0.983 ± 0.35
UAUUAGCAAUAUUACGGGUG	-0.149 ± 0.069	0.0549 ± 0.098
UAUUAGCAAUAUUACGGUAG	-2.42 ± 0.21	-0.417 ± 0.17
UAUUAGCAAUAUUACGUAGC	-2.37 ± 0.22	-1.31 ± 0.27
UAUUAGCAAUAUUACGUCUC	-2.7 ± 0.35	-1.5 ± 0.22
UAUUAGCAAUAUUACGUGAA	-2.17 ± 0.13	-1.87 ± 0.15
UAUUAGCAAUAUUACGUGCA	-0.96 ± 0.16	-0.986 ± 0.16
UAUUAGCAAUAUUACGUGGU	-2.57 ± 0.15	-2.69 ± 0.23
UAUUAGCAAUAUUACGUUAA	-1.91 ± 0.36	-1.53 ± 0.18
UAUUAGCAAUAUUACGUUAU	-2.68 ± 0.19	-2.2 ± 0.22
UAUUAGCAAUAUUACGUUCG	-1.13 ± 0.16	-0.121 ± 0.18
UCAAAGCAAUAUUACGAACU	-3.14 ± 0.19	-1.97 ± 0.23
UCAAAGCAAUAUUACGAAGC	-3.5 ± 0.33	-1.84 ± 0.38
UCAAAGCAAUAUUACGACGG	-0.0455 ± 0.082	0.125 ± 0.12
UCAAAGCAAUAUUACGACUA	-1.14 ± 0.098	-1.03 ± 0.1
UCAAAGCAAUAUUACGAGCA	-1.07 ± 0.15	-0.556 ± 0.15
UCAAAGCAAUAUUACGAUGC	-2.78 ± 0.15	-0.924 ± 0.15
UCAAAGCAAUAUUACGAUUA	-1.26 ± 0.11	-1.16 ± 0.12
UCAAAGCAAUAUUACGAUUC	-3.67 ± 0.27	-2.63 ± 0.28
UCAAAGCAAUAUUACGCGUG	-1.31 ± 0.057	-0.871 ± 0.066
UCAAAGCAAUAUUACGGAAU	-3.53 ± 0.17	-2.94 ± 0.23
UCAAAGCAAUAUUACGGCGG	-0.543 ± 0.063	-0.0651 ± 0.088
